From US20030215450A1 (published 2003) come the findings set out here.

Assay [1] deals with T1, soluble human RANKL protein (human, UniProt O14788 140-317, limits assumed, biotinylated with NHS-biotin at a 20:1 molar ratio of NHS-biotin to protein (competition ELISA only)).
T1 sequence (looked up): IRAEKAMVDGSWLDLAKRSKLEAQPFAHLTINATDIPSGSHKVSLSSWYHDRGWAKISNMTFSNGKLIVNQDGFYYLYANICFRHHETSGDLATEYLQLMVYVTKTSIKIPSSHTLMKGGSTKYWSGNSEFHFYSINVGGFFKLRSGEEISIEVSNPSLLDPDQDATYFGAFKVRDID
As to the kind of experiment: cell-based or functional assay.

Assay [2] addresses T1, soluble human RANKL protein. As to the kind of experiment: competition ELISA: biotinylated shRANKL (0.43 nM) binding to coated RANK-Fc, competitor in solution. From the text:
A. A competition ELISA was established using a human RANK-Fc fusion protein coated on plastic and a biotinylated soluble human RANKL protein for detection in solution. The RANK-Fc and RANKL proteins were produced in CHO cells and Pichia pastoris, respectively, and purified to >90% homogeneity. The shRANKL (soluble, human RANKL) protein was biotinylated at a 20:1 molar ratio of NHS-biotin to protein (Pierce, Rockford, Ill.) according to the manufacturer's specifications. 96-well ELISA plates were coated overnight at 4° C. with 50 ng/well […] RANK-Fc in pH 9.6 carbonate-bicarbonate buffer. Plates were washed in pH 7.4 Tris-Saline buffer containing 0.1% Tween 20 and blocked for 2 h at RT in 1% BSA/PBS. Competitor proteins (RANK-Fc; death receptor 5 (DR5)-Fc; OPG-Fc; RANKL mAb 2A4) were diluted in 0.01% Tween 20/PBS and added to wells prior to the addition of biotinylated shRANKL (0.43 nM) and the combined samples were incubated for 2 hrs at room temperature. The amount of biotinylated shRANKL bound to coated RANK-Fc (±competitor) was measured using alkaline phosphatase conjugated streptavidin. The substrate for signal detection was 105 PNPP (Pierce Inc., Rockford, Ill.) and absorbance measured at 405 nm using a Spectra Max 340 plate reader.

A further assay deals with T2, murine RANK-L (murine, UniProt O35235 158-316, limits assumed).
T2 sequence (looked up): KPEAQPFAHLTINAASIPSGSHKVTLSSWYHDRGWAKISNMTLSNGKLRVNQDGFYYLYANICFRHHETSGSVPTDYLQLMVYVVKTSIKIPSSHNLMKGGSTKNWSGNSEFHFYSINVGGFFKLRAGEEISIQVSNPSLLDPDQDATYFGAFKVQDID
Nature of the assay: not described.

Assay [3] deals with T1, soluble human RANKL protein. As to the kind of experiment: not described with the number; paragraph 33 defines high affinity as determined by optical biosensor analysis.

B1: human RANK-Fc fusion protein (Fc fusion, UniProt Q9Y6Q6 30-212, looked up)
chain: IAPPCTSEKHYEHLGRCCNKCEPGKYMSSKCTTTSDSVCLPCGPDEYLDSWNEEDKCLLHKVCDTGKALVAVVAGNSTTPRRCACTAGYHWSQDCECCRRNTECAPGLGAQHPLQLNKDTVCKPCLAGYFSDAFSSTDKCRPWTNCTFLGKRVEHHGTEKSDAVCSSSLPARKPPNEPHVYLP
notes: Produced in CHO cells; not shown: Fc part
For orientation: IC50 means the midpoint of a concentration-inhibition curve. Consider B1, for which the “IC50, formation of multinuclear cells, human monocyte osteoclastogenesis with 50 ng/ml human soluble RANKL plus M-CSF” value in assay [1] was around 0.5 µg/mL. The IC50 in assay [2] is around 6 nM.

B2: OPG-Fc (Fc fusion, UniProt O00300 22-194, looked up)
chain: ETFPPKYLHYDEETSHQLLCDKCPPGTYLKQHCTAKWKTVCAPCPDHYYTDSWHTSDECLYCSPVCKELQYVKQECNRTHNRVCECKEGRYLEIEFCLKHRSCPPGFGVVQAGTPERNTVCKRCPDGFFSNETSSKAPCRKHTNCSVFGLLLTQKGNATHDNICSGNSESTQK
notes: Construct not described; also called osteoprotegerin-Fc; not shown: Fc part; not described
Consider B2, for which the concentration for half-maximal inhibition (IC50) in assay [2] was around 0.5 nM.

B3: mouse monoclonal antibody 2A4 (antibody, mouse IgG2a, V domains shown)
VH: EVQLVESGGDLVKPGGSLKLSCAASGFTFSRYGMSWVRQTPDKRLEWVATISSGGSYIYYPDSVKGRFTISRDNAKNTLYLQMSSLKSEDTAMYYCARLDGYNYRWYFDVWGTGTTVTVSS
VL: DIVMTQSHKFMSTSVGDRVSITCKASQDVSTAVAWYQQKPGQSPKLLIYSASYRYTGVPDRFTGSGSGTDFTFTISSVQAEDLAVYYCQQHYSSPRTFGGGTNLEIK
notes: the latter are followed; also called mAb 2A4; 2A4 Mab
In general, Kd refers to the free concentration of one partner at which half of the binding sites on the other are occupied at equilibrium, for simple one-to-one binding. As for B3, the binding result with murine RANK-L is “no binding”. For the same molecule, the “IC50, formation of multinuclear cells, human monocyte osteoclastogenesis with 50 ng/ml human soluble RANKL plus M-CSF” value in assay [1] is around 4 µg/mL. The IC50 in assay [2] was around 2 nM. In addition, the Kd in assay [3] is around 0.1 nM.
